Test results as given in the supplement of paper PMC11908140.

B1: library; numbered along this chain (parent)
chain: MRKPRAAVGSGHRKQAASQEGRQKHAKNNSQAKPSACDGLARQPEEVVLQASVSSYHLFRDVAEVTAFRGSLLSWYDQEKRDLPWRRRAEDEMDLDRRAYAVWVSEVMLQQTQVATVINYYTGWMQKWPTLQDLASASLEEVNQLWAGLGYYSRGRRLQEGARKVVEELGGHMPRTAETLQQLLPGVGRYTAGAIASIAFGQATGVVDGNVARVLCRVRAIGADPSSTLVSQQLWGLAQQLVDPARPGDFNQAAMELGATVCTPQRPLCSQCPVESLCRARQRVEQEQLLASGSLSGSPDVEECAPNTGQCHLCLPPSEPWDQTLGVVNFPRKASRKPPREESSATCVLEQPGALGAQILLVQRPNSGLLAGLWEFPSVTWEPSEQLQRKALLQELQRWAGPLPATHLRHLGEVVHTFSHIKLTYQVYGLALEGQTPVTTVPPGARWLTQEEFHTAAVSTAMKKVFRVYQGQQPGTCMGSKRSQVSSPCSRKKPRMGQQVLDNFFRSHISTDAHSLNSAAQ

Variants of: B1
Assay: 8OG:A repair function score (normalized; synonymous = 0, nonsense = -1) (normalized log-likelihood score); higher = more repair activity (WT-like)
Conditions: with 8OG:A DNA repair reporter (GFP) in HEK-293 MUTYH KO cells
Method in brief: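 After 72 h, viable mCherry+ cells were split into GFP+ (repair) and GFP− bins in three replicates per tile. These cells were MUTYH knockout HEK-293 cells holding lentiviral MUTYH cDNA NNN codon-scan libraries, kept in 10 pg/ml doxycycline and co-transfected with mCherry plus an 8OG:A GFP repair reporter. Sequencing of tile amplicons gave per-tile Rosace fitness scores, normalized into a repair function score anchored on synonymous and nonsense distributions. Synonymous medians were fixed at 0, nonsense at -1, and variants under 300 counts per million at the start were removed.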
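Further: cells sorted at 72 h after reporter transfection.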

Variant | 8OG:A repair function score
MRKPRAAVGSGHRKQAASQEGRQKHAKNNSQAKPSACDGLARQPEEVVLQASVSSYHLFRDVAEVTAFRGSLLSWYDQEKRDLPWRRRAEDEMDLDRRAYAVWVSEVMLQQTQVATVINYYTGWMQKWPTLQDLASASLEEVNQLWAGLGYYSRGRRLQEGARKVVEELGGHMPRTAETLQQLLPGVGRYTAGAIASIAFGQATGVVDGNVARVLCRVRAIGADPSSTLVSQQLWGLAQQLVDPARPGDFNQAAMELGATVCTPQRPLCSQCPVESLCRARQRVEQEQLLASGSLSGSPDVEECAPNTGQCHLCLPPSEPWDQTLGVVNFPRKASRKPPREESSATCVLEQPGALGAQILLVQRPNSGLLAGTWEFPSVTWEPSEQLQRKALLQELQRWAGPLPATHLRHLGEVVHTFSHIKLTYQVYGLALEGQTPVTTVPPGARWLTQEEFHTAAVSTAMKKVFRVYQGQQPGTCMGSKRSQVSSPCSRKKPRMGQQVLDNFFRSHISTDAHSLNSAAQ [L373T] | -0.0654
MRKPRAAVGSGHRKQAASQEGRQKHAKNNSQAKPSACDGLARQPEEVVLQASVSSYHLFRDVAEVTAFRGSLLSWYDQEKRDLPWRRRAEDEMDLDRRAYAVWVSEVMLQQTQVATVINYYTGWMQKWPTLQDLASASLEEVNQLWAGLGYYSRGRRLQEGARKVVEELGGHMPRTAETLQQLLPGVGRYTAGAIASIAFGQATGVVDGNVARVLCRVRAIGADPSSTLVSQQLWGLAQQLVDPARPGDFNQAAMELGATVCTPQRPLCSQCPVESLCRARQRVEQEQLLASGSLSGSPDVEECAPNTGQCHLCLPPSEPWDQTLGVVNFPRKASRKPPREESSATCVLEQPGALGAQILLVQRPNSGLLAGWWEFPSVTWEPSEQLQRKALLQELQRWAGPLPATHLRHLGEVVHTFSHIKLTYQVYGLALEGQTPVTTVPPGARWLTQEEFHTAAVSTAMKKVFRVYQGQQPGTCMGSKRSQVSSPCSRKKPRMGQQVLDNFFRSHISTDAHSLNSAAQ [L373W] | -0.229
MRKPRAAVGSGHRKQAASQEGRQKHAKNNSQAKPSACDGLARQPEEVVLQASVSSYHLFRDVAEVTAFRGSLLSWYDQEKRDLPWRRRAEDEMDLDRRAYAVWVSEVMLQQTQVATVINYYTGWMQKWPTLQDLASASLEEVNQLWAGLGYYSRGRRLQEGARKVVEELGGHMPRTAETLQQLLPGVGRYTAGAIASIAFGQATGVVDGNVARVLCRVRAIGADPSSTLVSQQLWGLAQQLVDPARPGDFNQAAMELGATVCTPQRPLCSQCPVESLCRARQRVEQEQLLASGSLSGSPDVEECAPNTGQCHLCLPPSEPWDQTLGVVNFPRKASRKPPREESSATCVLEQPGALGAQILLVQRPNSGLLAGSWEFPSVTWEPSEQLQRKALLQELQRWAGPLPATHLRHLGEVVHTFSHIKLTYQVYGLALEGQTPVTTVPPGARWLTQEEFHTAAVSTAMKKVFRVYQGQQPGTCMGSKRSQVSSPCSRKKPRMGQQVLDNFFRSHISTDAHSLNSAAQ [L373S] | -0.647
MRKPRAAVGSGHRKQAASQEGRQKHAKNNSQAKPSACDGLARQPEEVVLQASVSSYHLFRDVAEVTAFRGSLLSWYDQEKRDLPWRRRAEDEMDLDRRAYAVWVSEVMLQQTQVATVINYYTGWMQKWPTLQDLASASLEEVNQLWAGLGYYSRGRRLQEGARKVVEELGGHMPRTAETLQQLLPGVGRYTAGAIASIAFGQATGVVDGNVARVLCRVRAIGADPSSTLVSQQLWGLAQQLVDPARPGDFNQAAMELGATVCTPQRPLCSQCPVESLCRARQRVEQEQLLASGSLSGSPDVEECAPNTGQCHLCLPPSEPWDQTLGVVNFPRKASRKPPREESSATCVLEQPGALGAQILLVQRPNSGLLAGVWEFPSVTWEPSEQLQRKALLQELQRWAGPLPATHLRHLGEVVHTFSHIKLTYQVYGLALEGQTPVTTVPPGARWLTQEEFHTAAVSTAMKKVFRVYQGQQPGTCMGSKRSQVSSPCSRKKPRMGQQVLDNFFRSHISTDAHSLNSAAQ [L373V] | -0.504
MRKPRAAVGSGHRKQAASQEGRQKHAKNNSQAKPSACDGLARQPEEVVLQASVSSYHLFRDVAEVTAFRGSLLSWYDQEKRDLPWRRRAEDEMDLDRRAYAVWVSEVMLQQTQVATVINYYTGWMQKWPTLQDLASASLEEVNQLWAGLGYYSRGRRLQEGARKVVEELGGHMPRTAETLQQLLPGVGRYTAGAIASIAFGQATGVVDGNVARVLCRVRAIGADPSSTLVSQQLWGLAQQLVDPARPGDFNQAAMELGATVCTPQRPLCSQCPVESLCRARQRVEQEQLLASGSLSGSPDVEECAPNTGQCHLCLPPSEPWDQTLGVVNFPRKASRKPPREESSATCVLEQPGALGAQILLVQRPNSGLLAGYWEFPSVTWEPSEQLQRKALLQELQRWAGPLPATHLRHLGEVVHTFSHIKLTYQVYGLALEGQTPVTTVPPGARWLTQEEFHTAAVSTAMKKVFRVYQGQQPGTCMGSKRSQVSSPCSRKKPRMGQQVLDNFFRSHISTDAHSLNSAAQ [L373Y] | -0.225
MRKPRAAVGSGHRKQAASQEGRQKHAKNNSQAKPSACDGLARQPEEVVLQASVSSYHLFRDVAEVTAFRGSLLSWYDQEKRDLPWRRRAEDEMDLDRRAYAVWVSEVMLQQTQVATVINYYTGWMQKWPTLQDLASASLEEVNQLWAGLGYYSRGRRLQEGARKVVEELGGHMPRTAETLQQLLPGVGRYTAGAIASIAFGQATGVVDGNVARVLCRVRAIGADPSSTLVSQQLWGLAQQLVDPARPGDFNQAAMELGATVCTPQRPLCSQCPVESLCRARQRVEQEQLLASGSLSGSPDVEECAPNTGQCHLCLPPSEPWDQTLGVVNFPRKASRKPPREESSATCVLEQPGALGAQILLVQRPNSGLLAGLDEFPSVTWEPSEQLQRKALLQELQRWAGPLPATHLRHLGEVVHTFSHIKLTYQVYGLALEGQTPVTTVPPGARWLTQEEFHTAAVSTAMKKVFRVYQGQQPGTCMGSKRSQVSSPCSRKKPRMGQQVLDNFFRSHISTDAHSLNSAAQ [W374D] | -0.78
MRKPRAAVGSGHRKQAASQEGRQKHAKNNSQAKPSACDGLARQPEEVVLQASVSSYHLFRDVAEVTAFRGSLLSWYDQEKRDLPWRRRAEDEMDLDRRAYAVWVSEVMLQQTQVATVINYYTGWMQKWPTLQDLASASLEEVNQLWAGLGYYSRGRRLQEGARKVVEELGGHMPRTAETLQQLLPGVGRYTAGAIASIAFGQATGVVDGNVARVLCRVRAIGADPSSTLVSQQLWGLAQQLVDPARPGDFNQAAMELGATVCTPQRPLCSQCPVESLCRARQRVEQEQLLASGSLSGSPDVEECAPNTGQCHLCLPPSEPWDQTLGVVNFPRKASRKPPREESSATCVLEQPGALGAQILLVQRPNSGLLAGLAEFPSVTWEPSEQLQRKALLQELQRWAGPLPATHLRHLGEVVHTFSHIKLTYQVYGLALEGQTPVTTVPPGARWLTQEEFHTAAVSTAMKKVFRVYQGQQPGTCMGSKRSQVSSPCSRKKPRMGQQVLDNFFRSHISTDAHSLNSAAQ [W374A] | -1.1
MRKPRAAVGSGHRKQAASQEGRQKHAKNNSQAKPSACDGLARQPEEVVLQASVSSYHLFRDVAEVTAFRGSLLSWYDQEKRDLPWRRRAEDEMDLDRRAYAVWVSEVMLQQTQVATVINYYTGWMQKWPTLQDLASASLEEVNQLWAGLGYYSRGRRLQEGARKVVEELGGHMPRTAETLQQLLPGVGRYTAGAIASIAFGQATGVVDGNVARVLCRVRAIGADPSSTLVSQQLWGLAQQLVDPARPGDFNQAAMELGATVCTPQRPLCSQCPVESLCRARQRVEQEQLLASGSLSGSPDVEECAPNTGQCHLCLPPSEPWDQTLGVVNFPRKASRKPPREESSATCVLEQPGALGAQILLVQRPNSGLLAGLCEFPSVTWEPSEQLQRKALLQELQRWAGPLPATHLRHLGEVVHTFSHIKLTYQVYGLALEGQTPVTTVPPGARWLTQEEFHTAAVSTAMKKVFRVYQGQQPGTCMGSKRSQVSSPCSRKKPRMGQQVLDNFFRSHISTDAHSLNSAAQ [W374C] | -0.633
MRKPRAAVGSGHRKQAASQEGRQKHAKNNSQAKPSACDGLARQPEEVVLQASVSSYHLFRDVAEVTAFRGSLLSWYDQEKRDLPWRRRAEDEMDLDRRAYAVWVSEVMLQQTQVATVINYYTGWMQKWPTLQDLASASLEEVNQLWAGLGYYSRGRRLQEGARKVVEELGGHMPRTAETLQQLLPGVGRYTAGAIASIAFGQATGVVDGNVARVLCRVRAIGADPSSTLVSQQLWGLAQQLVDPARPGDFNQAAMELGATVCTPQRPLCSQCPVESLCRARQRVEQEQLLASGSLSGSPDVEECAPNTGQCHLCLPPSEPWDQTLGVVNFPRKASRKPPREESSATCVLEQPGALGAQILLVQRPNSGLLAGLEEFPSVTWEPSEQLQRKALLQELQRWAGPLPATHLRHLGEVVHTFSHIKLTYQVYGLALEGQTPVTTVPPGARWLTQEEFHTAAVSTAMKKVFRVYQGQQPGTCMGSKRSQVSSPCSRKKPRMGQQVLDNFFRSHISTDAHSLNSAAQ [W374E] | -0.436
MRKPRAAVGSGHRKQAASQEGRQKHAKNNSQAKPSACDGLARQPEEVVLQASVSSYHLFRDVAEVTAFRGSLLSWYDQEKRDLPWRRRAEDEMDLDRRAYAVWVSEVMLQQTQVATVINYYTGWMQKWPTLQDLASASLEEVNQLWAGLGYYSRGRRLQEGARKVVEELGGHMPRTAETLQQLLPGVGRYTAGAIASIAFGQATGVVDGNVARVLCRVRAIGADPSSTLVSQQLWGLAQQLVDPARPGDFNQAAMELGATVCTPQRPLCSQCPVESLCRARQRVEQEQLLASGSLSGSPDVEECAPNTGQCHLCLPPSEPWDQTLGVVNFPRKASRKPPREESSATCVLEQPGALGAQILLVQRPNSGLLAGLHEFPSVTWEPSEQLQRKALLQELQRWAGPLPATHLRHLGEVVHTFSHIKLTYQVYGLALEGQTPVTTVPPGARWLTQEEFHTAAVSTAMKKVFRVYQGQQPGTCMGSKRSQVSSPCSRKKPRMGQQVLDNFFRSHISTDAHSLNSAAQ [W374H] | -0.924
MRKPRAAVGSGHRKQAASQEGRQKHAKNNSQAKPSACDGLARQPEEVVLQASVSSYHLFRDVAEVTAFRGSLLSWYDQEKRDLPWRRRAEDEMDLDRRAYAVWVSEVMLQQTQVATVINYYTGWMQKWPTLQDLASASLEEVNQLWAGLGYYSRGRRLQEGARKVVEELGGHMPRTAETLQQLLPGVGRYTAGAIASIAFGQATGVVDGNVARVLCRVRAIGADPSSTLVSQQLWGLAQQLVDPARPGDFNQAAMELGATVCTPQRPLCSQCPVESLCRARQRVEQEQLLASGSLSGSPDVEECAPNTGQCHLCLPPSEPWDQTLGVVNFPRKASRKPPREESSATCVLEQPGALGAQILLVQRPNSGLLAGLGEFPSVTWEPSEQLQRKALLQELQRWAGPLPATHLRHLGEVVHTFSHIKLTYQVYGLALEGQTPVTTVPPGARWLTQEEFHTAAVSTAMKKVFRVYQGQQPGTCMGSKRSQVSSPCSRKKPRMGQQVLDNFFRSHISTDAHSLNSAAQ [W374G] | -0.847
MRKPRAAVGSGHRKQAASQEGRQKHAKNNSQAKPSACDGLARQPEEVVLQASVSSYHLFRDVAEVTAFRGSLLSWYDQEKRDLPWRRRAEDEMDLDRRAYAVWVSEVMLQQTQVATVINYYTGWMQKWPTLQDLASASLEEVNQLWAGLGYYSRGRRLQEGARKVVEELGGHMPRTAETLQQLLPGVGRYTAGAIASIAFGQATGVVDGNVARVLCRVRAIGADPSSTLVSQQLWGLAQQLVDPARPGDFNQAAMELGATVCTPQRPLCSQCPVESLCRARQRVEQEQLLASGSLSGSPDVEECAPNTGQCHLCLPPSEPWDQTLGVVNFPRKASRKPPREESSATCVLEQPGALGAQILLVQRPNSGLLAGLFEFPSVTWEPSEQLQRKALLQELQRWAGPLPATHLRHLGEVVHTFSHIKLTYQVYGLALEGQTPVTTVPPGARWLTQEEFHTAAVSTAMKKVFRVYQGQQPGTCMGSKRSQVSSPCSRKKPRMGQQVLDNFFRSHISTDAHSLNSAAQ [W374F] | -0.33
